Experimental data as given in patent publication US20140303084A1 (Biogen, published 2014).
Square brackets hold non-standard residues; d marks the D form. Primed or numbered codes have the meaning given here. Side chains are listed from the residue outwards. Ends that are not written are not given here. * marks the point of attachment. N‑PEG5kmaleimide = Cys side chain bound to N-PEG 5 kDa maleimide; Biotin = O=C1N[C@H]2[C@H](CS[C@H]2CCCCC(=O)*)N1; Succinimide(1-Et,3-yl) = CCN1C(=O)CC(*)C1=O; NMeL = CN[C@@H](CC(C)C)C(=O)O; PEG4(3) = not defined here; PEG12′ = not defined here; Orn = NCCC[C@H](N)C(=O)O; PEG2″ = not defined here; PEG4″ = PEG4 spacer unit; PEG5′ = not defined here; Dab = NCC[C@H](N)C(=O)O; Dap = NC[C@H](N)C(=O)O; pip = not defined here; PEG4′ = PEG4 spacer; Acm = CC(=O)NC*

Target: human Factor IXa (human, UniProt P00740 47-191; P00740 227-461)
Test: cell-based or functional assay

B1: KATCLASYCWLF (peptide)
peptide: KATCLASYCWLF
With B1 the “EC50 [µM], FXa generation assay” value was under 0.5 µM.

B2: compound 10 (peptide)
peptide: [dK][NMeL]TCLASYCWLFWTGIA-NH2
modifications: cysteine pairing not given here
In the case of B2, the “EC50 [µM], FXa generation assay with hFIXa” value is reported as under 0.5 µM.

B3: KLTCLASYCALF (peptide)
peptide: KLTCLASYCALF
In the case of B3, the “EC50 [µM], FXa generation assay” value is reported as over 1 µM.

B4: CKTYFWKpGNIMVTFC-PEG12-Lys(PEG2-Biotin)-PEG12-rRAPGKLTCLASYCWLFWTGIA (peptide)
peptide: CKTYFWK[dP]GNIMVTFC[PEG12′]K([PEG2″-Biotin])[PEG12′][dR]RAPGKLTCLASYCWLFWTGIA
modifications: cysteine pairing not given here
B4 was tested, and the “EC50 [µM], FXa generation assay” value was over 20 µM.

B5: C(Acm)GGGGfpipR-PEG5-rRAPGKLTCLASYCWLFWTGIA (peptide)
peptide: C(Acm)GGGG[dF][pip]R[PEG5′][dR]RAPGKLTCLASYCWLFWTGIA
modifications: cysteine pairing not given here; reading uncertain; also: printed as C(Acm)GGGGfpipR-PEG5-rRAPGKLTCLASYCWLFWTGIA
With B5 the “EC50 [µM], FXa generation assay” value was over 1 µM.

B6: RRAPGKLT-Dap-LASY-Asp-WLFWTGIA-CONH2 (peptide)
peptide: RRAPGKLT[Dap]LASYDWLFWTGIA-NH2
modifications: N-terminus assumed
SMILES: CC[C@H](C)[C@H](NC(=O)CNC(=O)[C@@H](NC(=O)[C@H](Cc1c[nH]c2ccccc12)NC(=O)[C@H](Cc1ccccc1)NC(=O)[C@H](CC(C)C)NC(=O)[C@H](Cc1c[nH]c2ccccc12)NC(=O)[C@H](CC(=O)O)NC(=O)[C@H](Cc1ccc(O)cc1)NC(=O)[C@H](CO)NC(=O)[C@H](C)NC(=O)[C@H](CC(C)C)NC(=O)[C@H](CN)NC(=O)[C@@H](NC(=O)[C@H](CC(C)C)NC(=O)[C@H](CCCCN)NC(=O)CNC(=O)[C@@H]1CCCN1C(=O)[C@H](C)NC(=O)[C@H](CCCNC(=N)N)NC(=O)[C@@H](N)CCCNC(=N)N)[C@@H](C)O)[C@@H](C)O)C(=O)N[C@@H](C)C(N)=O
In the case of B6, the “EC50 [µM], FXa generation assay” value is reported as over 10 µM.

B7: rRAPGKLTCLASYCWLFWTGIA-PEG4-C(N-PEG5k maleimide) (peptide)
peptide: [dR]RAPGKLTCLASYCWLFWTGIA[PEG4(3)]C(N‑PEG5k maleimide)
modifications: cysteine pairing not given here
In the case of B7, the “EC50 [µM], FXa generation assay” value is reported as over 1 µM.

B8: kLTCLASYCWLF (peptide)
peptide: [dK]LTCLASYCWLF
modifications: not fully specified; cysteine pairing not given here
With B8 the “EC50 [µM], FXa generation assay” value was under 0.5 µM.

B9: CGGG-RRAPGKLT-Asp-LASY-Lys-WLFWTGIA (peptide)
peptide: CGGGRRAPGKLTDLASYKWLFWTGIA
With B9 the “EC50 [µM], FXa generation assay” value was under 0.5 µM.

B10: aigtwflwcysalctlkgparr (retro-inverso) (peptide)
peptide: [dA][dI]G[dT][dW][dF][dL][dW][dC][dY][dS][dA][dL][dC][dT][dL][dK]G[dP][dA][dR][dR]
modifications: cysteine pairing not given here; also: retro-inverso
B10 was tested, and the “EC50 [µM], FXa generation assay” value was over 1 µM.

B11: ALTCLAAYCALF (peptide)
peptide: ALTCLAAYCALF
In the case of B11, the “EC50 [µM], FXa generation assay” value is reported as over 1 µM.

B12: RRAPGKLT-Dab-LASY-Asp-WLFWTGIA-CONH2 (peptide)
peptide: RRAPGKLT[Dab]LASYDWLFWTGIA-NH2
modifications: N-terminus assumed
SMILES: CC[C@H](C)[C@H](NC(=O)CNC(=O)[C@@H](NC(=O)[C@H](Cc1c[nH]c2ccccc12)NC(=O)[C@H](Cc1ccccc1)NC(=O)[C@H](CC(C)C)NC(=O)[C@H](Cc1c[nH]c2ccccc12)NC(=O)[C@H](CC(=O)O)NC(=O)[C@H](Cc1ccc(O)cc1)NC(=O)[C@H](CO)NC(=O)[C@H](C)NC(=O)[C@H](CC(C)C)NC(=O)[C@H](CCN)NC(=O)[C@@H](NC(=O)[C@H](CC(C)C)NC(=O)[C@H](CCCCN)NC(=O)CNC(=O)[C@@H]1CCCN1C(=O)[C@H](C)NC(=O)[C@H](CCCNC(=N)N)NC(=O)[C@@H](N)CCCNC(=N)N)[C@@H](C)O)[C@@H](C)O)C(=O)N[C@@H](C)C(N)=O
In the case of B12, the “EC50 [µM], FXa generation assay” value is reported as over 1 µM.

B13: SKQGRPISPDrRAAGKLTCLASYCWLFWTGIA-PEG4-C(N-PEG5k maleimide) (peptide)
peptide: SKQGRPISPD[dR]RAAGKLTCLASYCWLFWTGIA[PEG4″]C(N‑PEG5k maleimide)
modifications: cysteine pairing not given here
B13 was tested, and the “EC50 [µM], FXa generation assay” value was over 5 µM.

B14: AIGTWFLWCYSALCTLKGPARR (retro) (peptide)
peptide: AIGTWFLWCYSALCTLKGPARR
modifications: not fully specified; printed as AIGTWFLWCYSALCTLKGPARR (retro); cysteine pairing not given here
B14 was tested, and the “EC50 [µM], FXa generation assay” value was over 1 µM.

B15: C(N-ethylmaleimide)-PEG4-LVPR-PEG4-rRAPGKLTCLASYCWLFWTGIA (peptide)
peptide: C(Succinimide(1-Et,3-yl))[PEG4′]LVPR[PEG4′][dR]RAPGKLTCLASYCWLFWTGIA
modifications: cysteine pairing not given here
For B15, the “EC50 [µM], FXa generation assay” value was over 1 µM.

B16: C(PEG5k)GGG-RRAPGKLT-Asp-LASY-Lys-WLFWTGIA (peptide)
peptide: C(PEG 5 kDa)GGGRRAPGKLTDLASYKWLFWTGIA
modifications: not fully specified; printed as C(PEG5k)GGG-RRAPGKLT-Asp-LASY-Lys-WLFWTGIA
In the case of B16, the “EC50 [µM], FXa generation assay” value is reported as over 1 µM.

B17: KKLTCLASYCWLF (peptide)
peptide: KKLTCLASYCWLF
B17 was tested, and the “EC50 [µM], FXa generation assay” value was under 0.5 µM.

B18: rrapgkltclasycwlfwtgia (inverso) (peptide)
peptide: [dR][dR][dA][dP]G[dK][dL][dT][dC][dL][dA][dS][dY][dC][dW][dL][dF][dW][dT]G[dI][dA]
modifications: not fully specified; printed as rrapgkltclasycwlfwtgia (inverso); cysteine pairing not given here
In the case of B18, the “EC50 [µM], FXa generation assay” value is reported as under 0.5 µM.

B19: KAACLASACWLA (peptide)
peptide: KAACLASACWLA
For B19, the “EC50 [µM], FXa generation assay” value was over 20 µM.

B20: RRRKLTCLASYCWLFRRR (peptide)
peptide: RRRKLTCLASYCWLFRRR
With B20 the “EC50 [µM], FXa generation assay” value was over 1 µM.

B21: KKKKLTCLASYCWLFKKK (peptide)
peptide: KKKKLTCLASYCWLFKKK
For B21, the “EC50 [µM], FXa generation assay” value was over 5 µM.

B22: ALTCLASYCWLF (peptide)
peptide: ALTCLASYCWLF
With B22 the “EC50 [µM], FXa generation assay” value was over 1 µM.

B23: C(N-PEG5kmaleimide)-PEG4-LVPR-PEG4-rRAPGKLTCLASYCWLFWTGIA (peptide)
peptide: C(N‑PEG5kmaleimide)[PEG4′]LVPR[PEG4′][dR]RAPGKLTCLASYCWLFWTGIA
modifications: cysteine pairing not given here
In the case of B23, the “EC50 [µM], FXa generation assay” value is reported as over 1 µM.

B24: KLTCLASYAWLF (peptide)
peptide: KLTCLASYAWLF
In the case of B24, the “EC50 [µM], FXa generation assay” value is reported as over 1 µM.

B25: KLTCLASYCWLA (peptide)
peptide: KLTCLASYCWLA
In the case of B25, the “EC50 [µM], FXa generation assay” value is reported as under 0.5 µM.

B26: RRAPGKLT-Asp-LASY-Dab-WLFWTGIA-CONH2 (peptide)
peptide: RRAPGKLTDLASY[Dab]WLFWTGIA-NH2
modifications: N-terminus assumed
SMILES: CC[C@H](C)[C@H](NC(=O)CNC(=O)[C@@H](NC(=O)[C@H](Cc1c[nH]c2ccccc12)NC(=O)[C@H](Cc1ccccc1)NC(=O)[C@H](CC(C)C)NC(=O)[C@H](Cc1c[nH]c2ccccc12)NC(=O)[C@H](CCN)NC(=O)[C@H](Cc1ccc(O)cc1)NC(=O)[C@H](CO)NC(=O)[C@H](C)NC(=O)[C@H](CC(C)C)NC(=O)[C@H](CC(=O)O)NC(=O)[C@@H](NC(=O)[C@H](CC(C)C)NC(=O)[C@H](CCCCN)NC(=O)CNC(=O)[C@@H]1CCCN1C(=O)[C@H](C)NC(=O)[C@H](CCCNC(=N)N)NC(=O)[C@@H](N)CCCNC(=N)N)[C@@H](C)O)[C@@H](C)O)C(=O)N[C@@H](C)C(N)=O
With B26 the “EC50 [µM], FXa generation assay” value was over 10 µM.

B27: C(N-PEG5kmaleimide)-PEG4-SKQGRPISPDrRAAGKLTCLASYCWLFWTGIA (peptide)
peptide: C(N‑PEG5kmaleimide)[PEG4′]SKQGRPISPD[dR]RAAGKLTCLASYCWLFWTGIA
modifications: cysteine pairing not given here
B27 was tested, and the “EC50 [µM], FXa generation assay” value was over 1 µM.

B28: KLTCLASACWLF (peptide)
peptide: KLTCLASACWLF
B28 was tested, and the “EC50 [µM], FXa generation assay” value was under 0.5 µM.

B29: KLACLASYCWLF (peptide)
peptide: KLACLASYCWLF
For B29, the “EC50 [µM], FXa generation assay” value was under 0.5 µM.

B30: KLTCAASYCWLF (peptide)
peptide: KLTCAASYCWLF
In the case of B30, the “EC50 [µM], FXa generation assay” value is reported as under 0.5 µM.

B31: RRAPGKLT-Asp-LASY-Dap-WLFWTGIA-CONH2 (peptide)
peptide: RRAPGKLTDLASY[Dap]WLFWTGIA-NH2
modifications: N-terminus assumed
SMILES: CC[C@H](C)[C@H](NC(=O)CNC(=O)[C@@H](NC(=O)[C@H](Cc1c[nH]c2ccccc12)NC(=O)[C@H](Cc1ccccc1)NC(=O)[C@H](CC(C)C)NC(=O)[C@H](Cc1c[nH]c2ccccc12)NC(=O)[C@H](CN)NC(=O)[C@H](Cc1ccc(O)cc1)NC(=O)[C@H](CO)NC(=O)[C@H](C)NC(=O)[C@H](CC(C)C)NC(=O)[C@H](CC(=O)O)NC(=O)[C@@H](NC(=O)[C@H](CC(C)C)NC(=O)[C@H](CCCCN)NC(=O)CNC(=O)[C@@H]1CCCN1C(=O)[C@H](C)NC(=O)[C@H](CCCNC(=N)N)NC(=O)[C@@H](N)CCCNC(=N)N)[C@@H](C)O)[C@@H](C)O)C(=O)N[C@@H](C)C(N)=O
With B31 the “EC50 [µM], FXa generation assay” value was over 1 µM.

B32: KLTCLaSYCWLF (peptide)
peptide: KLTCL[dA]SYCWLF
modifications: not fully specified (bridges); printed as KLTCLaSYCWLF; cysteine pairing not given here
B32 was tested, and the “EC50 [µM], FXa generation assay” value was over 5 µM.

B33: KLTALASYCWLF (peptide)
peptide: KLTALASYCWLF
In the case of B33, the “EC50 [µM], FXa generation assay” value is reported as over 1 µM.

B34: CGGGLVPRGGG-RRAPGKLT-Asp-LASY-Lys-WLFWTGIA (peptide)
peptide: CGGGLVPRGGGRRAPGKLTDLASYKWLFWTGIA
B34 was tested, and the “EC50 [µM], FXa generation assay” value was under 0.5 µM.

B35: RRAPGKLT-Lys-LASY-Glu-WLFWTGIA-CONH2 (peptide)
peptide: RRAPGKLTKLASYEWLFWTGIA-NH2
With B35 the “EC50 [µM], FXa generation assay” value was over 1 µM.

B36: SKQGRPISPDRRAAGKLT-Asp-LASY-Orn-WLFWTGIA (peptide)
peptide: SKQGRPISPDRRAAGKLTDLASY[Orn]WLFWTGIA
modifications: not fully specified; printed as SKQGRPISPDRRAAGKLT-Asp-LASY-Orn-WLFWTGIA
For B36, the “EC50 [µM], FXa generation assay” value was under 0.5 µM.
